In series [1] the target is T1, human Insc of the Insc:LGN:Gαi complex (human, UniProt Q1MX18-2 1-532).
T1 construct: human Inscuteable; Same chain as the Insc chain of m16
T1 sequence (looked up): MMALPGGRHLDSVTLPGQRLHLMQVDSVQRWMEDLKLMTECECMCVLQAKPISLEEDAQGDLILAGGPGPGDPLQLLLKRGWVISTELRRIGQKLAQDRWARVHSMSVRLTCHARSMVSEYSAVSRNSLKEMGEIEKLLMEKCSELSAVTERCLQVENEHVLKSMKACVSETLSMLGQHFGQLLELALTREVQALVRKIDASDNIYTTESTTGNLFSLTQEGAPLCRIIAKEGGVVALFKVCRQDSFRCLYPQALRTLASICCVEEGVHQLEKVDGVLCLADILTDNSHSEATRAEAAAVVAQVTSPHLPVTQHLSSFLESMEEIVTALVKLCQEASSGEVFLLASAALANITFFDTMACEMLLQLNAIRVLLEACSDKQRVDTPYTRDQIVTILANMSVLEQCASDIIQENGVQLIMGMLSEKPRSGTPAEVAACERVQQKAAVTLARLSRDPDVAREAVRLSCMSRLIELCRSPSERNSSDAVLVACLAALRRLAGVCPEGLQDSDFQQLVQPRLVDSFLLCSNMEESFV
Put plainly: SEC; Par3^PDZ123 mixed in molar excess with purified Insc:LGN:Gαi, SDS-PAGE of fractions. Conditions: both partners purified. (In general: SEC sorts molecules by how far they enter the pores of the column.)

Series [2] concerns the molecule itself. Put plainly: crystal structure; dLGN 25-406:Insc 283-623 complex, 3.4 Å, space group P212121, four tetramers in the asymmetric unit.
The target in series [3] is T2, Drosophila LGN (Pins) TPR domain, residues 25-406 (Drosophila, UniProt Q9VB22 25-406).
T2 construct: Pins (fly orthologue of LGN), Drosophila, residues 25-406 (TPR domain); Monomeric in isolation; two copies stand in the 2:2 tetramer with Insc^ASYM; also called dLGN^TPR; dLGN^25–406
T2 sequence (looked up): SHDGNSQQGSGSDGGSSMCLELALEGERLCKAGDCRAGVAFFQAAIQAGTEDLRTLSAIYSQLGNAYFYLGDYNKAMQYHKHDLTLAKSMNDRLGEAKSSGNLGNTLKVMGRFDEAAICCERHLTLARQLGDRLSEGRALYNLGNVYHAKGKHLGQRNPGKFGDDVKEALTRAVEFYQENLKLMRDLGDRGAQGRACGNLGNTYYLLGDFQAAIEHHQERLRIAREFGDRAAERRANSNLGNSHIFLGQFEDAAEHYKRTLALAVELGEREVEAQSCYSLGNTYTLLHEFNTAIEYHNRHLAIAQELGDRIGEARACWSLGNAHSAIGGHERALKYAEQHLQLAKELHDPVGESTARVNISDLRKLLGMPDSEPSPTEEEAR
Put plainly: SEC-MALS; static light scattering of the dLGN^TPR:Insc^ASYM complex eluting from a size-exclusion column. Particulars: both partners purified.

B1: human Par3^PDZ123 (residues 269-685), GST-tag removed (domain or fragment, UniProt Q8TEW0 269-685, looked up)
chain: DDMVKLVEVPNDGGPLGIHVVPFSARGGRTLGLLVKRLEKGGKAEHENLFRENDCIVRINDGDLRNRRFEQAQHMFRQAMRTPIIWFHVVPAANKEQYEQLSQSEKNNYYSSRFSPDSQYIDNRSVNSAGLHTVQRAPRLNHPPEQIDSHSRLPHSAHPSGKPPSAPASAPQNVFSTTVSSGYNTKKIGKRLNIQLKKGTEGLGFSITSRDVTIGGSAPIYVKNILPRGAAIQDGRLKAGDRLIEVNGVDLVGKSQEEVVSLLRSTKMEGTVSLLVFRQEDAFHPRELNAEPSQMQIPKETKAEDEDIVLTPDGTREFLTFEVPLNDSGSAGLGVSVKGNRSKENHADLGIFVKSIINGGAASKDGRLRVNDQLIAVNGESLLGKTNQDAMETLRRSMSTEGNKRGMIQLIVARRIS
notes: human Par3, residues 269-685 (the three PDZ domains), Uniprot Q8TEW0
Turning to B1, the binding result in series [1] was “binds”.

B2: Drosophila Inscuteable asymmetric domain, residues 283-623 (domain or fragment, UniProt Q24367 283-623, looked up)
chain: SLRFTASTSTPKSGSKIAKRGKKHPEPVASWMSEQRWAGEPEVMCTLQHKSIAQEAYKNYTITTSAVCKLVRQLQQQALSLQVHFERSERVLSGLQASSLPEALAGATQLLSHLDDFTATLERRGVFFNDAKIERRRYEQHLEQIRTVSKDTRYSLERQHYINLESLLDDVQLLKRHTLITLRLIFERLVRVLVISIEQSQCDLLLRANINMVATLMNIDYDGFRSLSDAFVQNEAVRTLLVVVLDHKQSSVRALALRALATLCCAPQAINQLGSCGGIEIVRDILQVESAGERGAIERREAVSLLAQITAAWHGSEHRVPGLRDCAESLVAGLAALLQPE
notes: Inscuteable, Drosophila, residues 283-623 (asymmetric domain: Insc^PEPT stretch, four-helix bundle, three Armadillo repeats); Two copies stand in the 2:2 tetramer with dLGN^TPR; also called Insc^ASYM; Insc-A^ASYM
What is called stoichiometry N is the number of molecules, sites or subunits per partner or assembly. Consider B2, for which, in series [2], the binding result is given as “binds”. Moreover, the “stoichiometry N” value in series [3] is 1 Insc per dLGN (2:2).

The values are drawn from paper PMC5844954, “Insc:LGN tetramers promote asymmetric divisions of mammary stem cells” (Nature Communications, 2018).
